# Data reported in patent publication US20180030136A1.
# B1: ICOS mAb clone 314.8 (antibody, from another filing, V domains shown)
# VH: QVQLQQPGTELMKPGASVKLSCKASGYTFTTYWMHWVKQRPGQGLEWIGEIDPSDSYVNYNQNFKGKATLTVDKSSSTAYIQLSSLTSEDSAVYFCARSPDYYGTSLAWFDYWGQGTLVTVST
# VL: DIVMTQAAPSVPVTPGESVSISCRSSKSPLHSNGNIYLYWFLQRPGQSPQLLIYRMSNLASGVPDRFSGSGSGTTFTLKISRVEAEDVGVYYCMQHLEYPYTFGGGTKLEIK
# Assays:
# [1] = target: cynomolgus ICOS (cynomolgus); experiment: Biacore, cyno ICOS
# [2] = target: human ICOS (human) (UniProt Q9Y6W8); experiment: Biacore, human ICOS
# Sequence of human ICOS (human) (Q9Y6W8 21-140 limits assumed): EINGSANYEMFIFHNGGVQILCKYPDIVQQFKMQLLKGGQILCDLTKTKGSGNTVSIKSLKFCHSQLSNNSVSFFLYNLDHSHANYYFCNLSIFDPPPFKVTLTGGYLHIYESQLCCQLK
binder,measurement,setting,value
B1,Kd,[1],9.3 nM
same,Kd,[2],17 nM
